To fix the notation:
T1: MBP-HDAC8 (UniProt Q9BY41 8-374)
T1 sequence (looked up): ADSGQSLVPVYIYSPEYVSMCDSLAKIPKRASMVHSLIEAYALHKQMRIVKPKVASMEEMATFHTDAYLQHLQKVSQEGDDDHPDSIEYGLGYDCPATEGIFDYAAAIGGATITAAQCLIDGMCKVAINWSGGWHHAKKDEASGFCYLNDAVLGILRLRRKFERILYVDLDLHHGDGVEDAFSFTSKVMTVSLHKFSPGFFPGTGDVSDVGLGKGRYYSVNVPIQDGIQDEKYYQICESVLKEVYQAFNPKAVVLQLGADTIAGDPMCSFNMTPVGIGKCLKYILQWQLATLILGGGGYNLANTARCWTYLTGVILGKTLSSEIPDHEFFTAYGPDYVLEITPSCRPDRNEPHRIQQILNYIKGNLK

B1: hRpn13 (1–150) (domain or fragment, human, UniProt Q16186 1-150, looked up)
chain: MTTSGALFPSLVPGSRGASNKYLVEFRAGKMSLKGTTVTPDKRKGLVYIQQTDDSLIHFCWKDRTSGNVEDDLIIFPDDCEFKRVPQCPSGRVYVLKFKAGSKRLFFWMQEPKTDQDEEHCRKVNEYLNNPPMPGALGASGSSGHELSAL

What all share (experiment): NMR titration
For one test, the target named is PADI4 (1–663) (UniProt Q9UM07 1-663).
The target of another test is T1, MBP-HDAC8.
In the test “hRpn13 (1–150)” the target is B1.

The values below come from paper PMC10872465 (Molecular cell, 2023).

Chain of PADI4 (1–663) (Q9UM07 whole entry): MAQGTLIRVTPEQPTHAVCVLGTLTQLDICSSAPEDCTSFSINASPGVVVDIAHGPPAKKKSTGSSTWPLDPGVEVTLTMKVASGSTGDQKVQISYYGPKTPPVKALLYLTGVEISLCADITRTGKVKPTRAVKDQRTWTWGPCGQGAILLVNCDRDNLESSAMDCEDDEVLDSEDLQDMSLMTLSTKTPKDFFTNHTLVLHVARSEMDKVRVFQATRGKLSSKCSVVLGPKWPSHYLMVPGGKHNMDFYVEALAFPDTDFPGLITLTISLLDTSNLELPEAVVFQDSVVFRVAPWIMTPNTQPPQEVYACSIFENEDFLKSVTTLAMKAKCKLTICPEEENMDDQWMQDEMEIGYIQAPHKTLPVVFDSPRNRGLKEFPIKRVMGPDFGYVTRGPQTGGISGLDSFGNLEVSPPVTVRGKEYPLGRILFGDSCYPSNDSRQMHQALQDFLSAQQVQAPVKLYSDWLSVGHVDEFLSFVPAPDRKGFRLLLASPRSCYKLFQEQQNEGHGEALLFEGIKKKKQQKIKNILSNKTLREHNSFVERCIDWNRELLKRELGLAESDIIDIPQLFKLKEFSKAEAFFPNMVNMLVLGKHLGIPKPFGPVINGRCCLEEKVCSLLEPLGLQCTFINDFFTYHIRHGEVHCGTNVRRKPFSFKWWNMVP

On to B1, for which the binding result in the test with PADI4 (1–663) and with MBP-HDAC8 was “binds” in each case.
Consider QEPEPPEPFEYIDD (peptide, UniProt Q99460 940-953, looked up) [hRpn2 (940–953)], for which the binding result with hRpn13 (1–150) is “binds”.
